From publication doi:10.1101/2025.06.17.660173, “Twinfilin is a potent uncapper of actin capping protein and modulates actomyosin contractility in the C. elegans spermatheca” (bioRxiv, 2025)

Target: T1, biotinylated SNAP tagged C. elegans heterodimeric capping protein (CAP-1/CAP-2) (C. elegans, UniProt P34685 1-282; P34686 1-270, biotin on the SNAP tag (benzylguanine-biotin); the subunit that carries it is not stated | biotin on the SNAP tag (benzylguanine-biotin); the subunit that carries it is not stated)
T1 construct: CAP-1, a capping protein subunit of C. elegans; CAP-2, a capping protein subunit of C. elegans; The complex was anchored to streptavidin-coated coverslips by the biotin; also called SNAP-CP; CP; source: E. coli BL21 DE3, purified (HisTrap, Superose 6), labelled with benzylguanine-biotin; not shown: His tag (from the HisTrap purification)
T1 sequence (looked up) 1: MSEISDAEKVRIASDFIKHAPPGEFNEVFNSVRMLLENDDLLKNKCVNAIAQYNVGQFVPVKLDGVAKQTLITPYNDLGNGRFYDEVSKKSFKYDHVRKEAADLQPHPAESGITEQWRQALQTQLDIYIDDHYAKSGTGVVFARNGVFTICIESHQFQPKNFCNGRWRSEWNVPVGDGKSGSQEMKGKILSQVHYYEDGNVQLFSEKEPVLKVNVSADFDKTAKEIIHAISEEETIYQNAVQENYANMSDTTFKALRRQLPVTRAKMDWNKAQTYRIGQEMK
T1 sequence (looked up) 2: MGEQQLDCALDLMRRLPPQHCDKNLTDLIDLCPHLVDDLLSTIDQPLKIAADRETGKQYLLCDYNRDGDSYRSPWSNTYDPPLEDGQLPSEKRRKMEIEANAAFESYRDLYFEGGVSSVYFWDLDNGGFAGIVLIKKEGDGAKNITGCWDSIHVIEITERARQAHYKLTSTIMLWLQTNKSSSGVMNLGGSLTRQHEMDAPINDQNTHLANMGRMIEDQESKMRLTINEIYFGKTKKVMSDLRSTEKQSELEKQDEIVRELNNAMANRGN
Test: mf-TIRF microscopy uncapping assay; biotinylated SNAP-CP anchored to the coverslip; preformed Alexa-488-labelled (15%) ADP-actin filaments captured; filament detachment followed with and without TWF-2 in TIRF buffer (10 mM imidazole pH 7.4, 50 mM KCl, 1 mM MgCl2, 1 mM EGTA, 0.2 mM ATP, 10 mM DTT); survival fitted to a single exponential
Settings: both partners purified

B1: C. elegans TWF-2 (6×His-tagged), recombinant (natural protein, UniProt Q20173 1-333, looked up)
chain: MACQTGIRANAALRNALNLGKQAKLRLIKIVVNNEEMTPNYEFAGTANWRDDWRACLPDCVDAYEPCFILFRLNTITEWVLITFVDDRAPVREKMLLAATCATFKSEFGQCYIEHEKHVTDLKDLTLNAFEAWLKAKTELGPMSEVERELHNAQQERAAIAHAGPQHMKGVAFPVDRNAEEALRQLASQKLSFVQLSVDTLNEAIKLEGTLESLEPSQLASKVPRDKPRYTFYNFDHTWEGVPQQCTLFIYSLPSSGSSIKERMLYSSCKGPFLSAAQNQYGVVITNKMEVDARDDLSEKALLEVIHPLPVEAPKQFSRPAPPRAGPRRITKV
notes: TWF-2, the sole twinfilin ortholog of C. elegans; also called twinfilin; C. elegans twinfilin; source: E. coli BL21 (pRare), purified (Ni-NTA, Superdex 75 Increase)
- fold acceleration of uncapping of CP from actin filaments: > 90 fold
